Data reported in article PMC7557104, “Population genetic and biophysical evidences reveal that purifying selection shapes the genetic landscape of Plasmodium falciparum RH ligands in Chhattisgarh and West Bengal, India” (Malaria Journal, 2020).

What was measured:
[1] = target: T1, rPfRH5M, recombinant receptor binding fragment of PfRH5 encoded by the most prevalent haplotype rh5h1 (Y203) (Plasmodium falciparum, UniProt Q8IFM5 35-222, C203Y); experiment: ITC; BSG injected drop by drop (1 min intervals) into the cell holding PfRH5_(3D7) or PfRH5M; BSG 10 times more concentrated than PfRH5; 25 °C; 0.1 M phosphate buffer, pH 7.0, Dulbecco PBS pH 7.4 in the reference cell (methods); PBS-BSG titration subtracted; fit to one set of binding sites; details: both partners purified
T1 construct: PfRH5, Plasmodium falciparum, field-isolate haplotype rh5h1, which differs from the Pf3D7 allele by C203Y; 188 aa, Glutamine-35 to Serine-222, amplified from DNA of an infected blood sample; Cloned BamHI/HindIII into pET-20b(+); also called PfRH5_(variant); Y203 allele; source: E. coli BL21 (DE3), purified (Ni-NTA)
T1 sequence (looked up): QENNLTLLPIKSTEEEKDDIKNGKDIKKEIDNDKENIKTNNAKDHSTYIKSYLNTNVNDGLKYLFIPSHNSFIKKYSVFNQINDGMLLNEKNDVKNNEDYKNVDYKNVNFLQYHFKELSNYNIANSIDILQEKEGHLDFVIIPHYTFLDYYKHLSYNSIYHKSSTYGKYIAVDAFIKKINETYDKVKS

[2] = target: T2, rPfRH5_(3D7), recombinant receptor binding fragment of P. falciparum reticulocyte binding protein-like … (Plasmodium falciparum, UniProt Q8IFM5 35-222); experiment: as above; details: both partners purified
T2 construct: made by site-directed mutagenesis (Y203 to C) of the field-isolate clone rPfRH5M-pET-20b; Cloned BamHI/HindIII into pET-20b(+); also called C203 allele; source: E. coli BL21 (DE3), purified (Ni-NTA)
T2 sequence: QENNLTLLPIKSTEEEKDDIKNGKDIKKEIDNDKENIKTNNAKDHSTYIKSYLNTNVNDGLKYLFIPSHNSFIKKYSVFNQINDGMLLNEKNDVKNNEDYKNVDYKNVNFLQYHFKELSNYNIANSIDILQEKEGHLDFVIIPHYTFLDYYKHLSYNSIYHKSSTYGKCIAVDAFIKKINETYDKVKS

B1: basigin (BSG) (receptor)
chain: AAGTVFTTVEDLGSKILLTCSLNDSATEVTGHRWLKGGVVLKEDALPGQKTEFKVDSDDQWGEYSCVFLPEPMGTANIQLHGPPRVKAVKSSEHINEGETAMLVCKSESVPPVTDWAWYKITDSEDKALMNGSESRFFVSSSQGRSELHIENLNMEADPGQYRCNGTSSKGSDQAIITLRVRSHLAAL
- Ka [1]: 3.63e+06 M⁻¹
- Ka [2]: 1.31e+06 M⁻¹
